The values that follow come from patent publication CN115057938A (dated 2022).

The test concerns the target T1, Delta变异株SARS-COV-2 RBD蛋白(Ag101) (SARS-COV-2 Delta变异株, UniProt P0DTC2 319-541).
T1 construct: domain: RBD; also called Delta variant SARS-COV-2 RBD protein
Nature of the test: competition ELISA: Delta RBD coated, blocks ACE2 binding. For orientation: ELISA stands for enzyme-linked immunosorbent assay.

B1: R1463 (VHH)
VHH: QVQLVESGGGVVQPGGSLRLSCTCSRCTFNWDGMGWFRQAPGKGLEFVATISWSGQEPAYADSVKGRFTISRDNSKNTLYLQMTSLRAEDTAVYYCAAAQYTGASYSILRDQVGYDYWGQGTLVTVSS
notes: also called RX017 VHH-His标签; 对照
In the case of B1, the IC50 – broadly, the midpoint of a concentration-inhibition curve – came out at 18.1 pM.

B2: R1475 (VHH, not shown: small tags and cut ends)
VHH 1: B1 VHH
VHH 2: B1 VHH
notes: also called 人源化多价结合蛋白 R1475; VHH-Linker-VHH-His标签
With B2, the IC50 was 3.34 pM.

B3: R1464 (VHH, not shown: small tags and cut ends)
chain (part 1 of 3): HHHHHHQVQLVESGGGVVQPGGSLRLSCTCSRCTFNWDGMGWFRQAPGKGLEFVATISWSGQEPAYADSVKGRFTISRDNSKNTLYLQMTSLRAEDTAVYYCAAAQYTGASYSILRDQVGYDYWGQGTLVTVSS
chain (part 2 of 3): B1 VHH
chain (part 3 of 3): B1 VHH
notes: also called 人源化多价结合蛋白 R1464; His标签-VHH-Linker-VHH-Linker-VHH
B3 gave an IC50 of 4.32 pM.
